B1: NPB-303 humanized anti-BDCA2 monoclonal antibody (huIgG1) (antibody, V domains shown)
VH: EVQLVESGGGLVKPGGSLRLSCAASGFTFSTMSWVRQAPGKRLEWVASISSGGSTYYPDSVKGRFTISRDNAKNSLYLQMNSLRAEDTAVYYCARPSYDGYSSWFAYWGQGTLVTVSS
VL: EIVLTQSPATLSLSPGERATLSCKASQSVDYDGDGFMNWYQQKPGQAPRLLIYTASNLESGVPARFSGSGSGTDFTLTISSLEPEDFAVYYCQQSNEDPWTFGGGTKVEIKR
notes: Humanized from mouse mAb 12b, human IgG1/kappa
B2: NPB-303_A.D (antibody, V domains shown)
VH: B1 VH with D99E
VL: EIVLTQSPATLSLSPGERATLSCKASQSVDYEGEGFMNWYQQKPGQAPRLLIYTASNLESGVPARFSGSGSGTDFTLTISSLEPEDFAVYYCQQSNEDPWTFGGGTKVEIK
notes: whole antibody captured by anti-human Fc; Made at small (3 mL) and large (100 mL) scale
B3: NPB-303_A (antibody, V domains shown)
VH: B1 VH with D99E
VL: B2 VL with E32D, E34D
notes: whole antibody captured by anti-human Fc
B4: NPB-303_A.E (antibody, V domains shown)
VH: B1 VH with D99E
VL: B2 VL with E32D, G33A, E34D, G35A
notes: as for B3
B5: NPB-303_B.G (antibody, V domains shown)
VH: B1 VH with G100A
VL: B2 VL with E32D, G33A
notes: as for B3
B6: NPB-303_B.H (antibody, V domains shown)
VH: B1 VH with G100A
VL: B2 VL with E32S, E34S
notes: as for B3
B7: NPB-303_C.H (antibody, V domains shown)
VH: B1 VH with D99S
VL: B2 VL with E32S, E34S
notes: as for B3
B8: NPB-303_C.E (antibody, V domains shown)
VH: B1 VH with D99S
VL: B2 VL with E32D, G33A, E34D, G35A
notes: as for B3
B9: NPB-303_A.F (antibody, V domains shown)
VH: B1 VH with D99E
VL: B2 VL with E34D, G35A
notes: as for B3
B10: NPB-303_A.G (antibody, V domains shown)
VH: B1 VH with D99E
VL: B2 VL with E32D, G33A
notes: as for B3
B11: NPB-303_A.H (antibody, V domains shown)
VH: B1 VH with D99E
VL: B2 VL with E32S, E34S
notes: as for B3
B12: NPB-303_G (antibody, V domains shown)
VH: B1 VH
VL: B2 VL with E32D, G33A
notes: as for B3
B13: NPB-303_C.F (antibody, V domains shown)
VH: B1 VH with D99S
VL: B2 VL with E34D, G35A
notes: as for B3
B14: NPB-303_C (antibody, V domains shown)
VH: B1 VH with D99S
VL: B2 VL with E32D, E34D
notes: as for B3
B15: NPB-303_B.E (antibody, V domains shown)
VH: B1 VH with G100A
VL: B2 VL with E32D, G33A, E34D, G35A
notes: as for B3
B16: NPB-303_B.F (antibody, V domains shown)
VH: B1 VH with G100A
VL: B2 VL with E34D, G35A
notes: as for B3
B17: NPB-303_B (antibody, V domains shown)
VH: B1 VH with G100A
VL: B2 VL with E32D, E34D
notes: as for B3
B18: NPB-303_F (antibody, V domains shown)
VH: B1 VH
VL: B2 VL with E34D, G35A
notes: as for B3
B19: NPB-303_D (antibody, V domains shown)
VH: B1 VH
VL: B2 VL
notes: as for B3

Positions count from the first letter of the chain named. “And” between values parts separate entries of the source, which are not always exact repeats. Equal values may be shown once.

The target of the first experiment is T1, recombinant human BDCA2 extracellular domain (UniProt Q8WTT0, residues 45-213) (human, UniProt Q8WTT0 45-213).
T1 construct: range 45-213; also called recombinant BDCA2 proteins; BDCA2 proteins
T1 sequence (looked up): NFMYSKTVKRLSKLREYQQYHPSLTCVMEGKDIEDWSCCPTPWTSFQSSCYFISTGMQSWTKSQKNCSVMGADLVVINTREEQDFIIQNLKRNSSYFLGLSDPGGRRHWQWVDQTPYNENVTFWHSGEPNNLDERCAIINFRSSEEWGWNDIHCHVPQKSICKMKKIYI
Kind of experiment: SPR (Biacore), antibody as ligand, HsCD303HIS as sample, 25 °C, 1:1 Binding fit; Table 1 prints 7.29 x 10^5, but the sheet's exponent fits the printed kd 3.271E-4 and KD 4.487E-9. (In general: SPR reads the build-up and loss of mass on a sensor chip optically.)
Broadly, the kon is a measure of how fast the partners come together. On to B1, for which the kon is 72900 M⁻¹ s⁻¹.

Another experiment has as its target T1, recombinant human BDCA2 extracellular …. Put plainly: SPR (Biacore), recombinant BDCA2; large-scale (100 mL) batch. As for the experimental part:
(§1) BDCA2 antibody binding kinetics were measured using a Biacore surface plasmon resonance (SPR) instrument (GE Life Sciences). Briefly, anti-BDCA2 antibodies were captured on an anti-human Fc chip. The recombinant BDCA2 proteins were then flowed over the captured antibodies over a range of concentrations, at a rate of 50 μL/minute. The data was analyzed to determine kinetic constants using the BIAevaluation software package (GE Life Sciences). The sensorgrams of SPR based affinity testing for all 24 antibodies are shown in FIG. 55, and the biophysical characteristics of all 24 antibodies are summarized in Table 5.
As a reminder, the Kd is a measure of binding affinity in units of concentration. One may read the koff as a measure of how fast the partners let go of each other. For the molecule B2, the Kd was 0.927 nM, the koff was determined as 0.000133 s⁻¹ and the kon is 144000 M⁻¹ s⁻¹.

The next experiment concerns the target T2, BDCA-2 antigen (Biorbyt CLEC4C orb358925) (human, UniProt Q8WTT0).
T2 construct: recombinant protein, construct not described; It is kept apart from m4 because it is a different preparation; also called human BDCA2 antigen
T2 sequence (antigen, looked up): T1 sequence (looked up)
Put plainly: ELISA, plate coated with BDCA-2 antigen, detection with HRP anti-human IgG Fc, A450 corrected by A590. As for the experimental part: Briefly, Nunc MaxiSorp 96-well plates were coated with BDCA-2 antigen (Biorbyt CLEC4C orb358925) overnight at 4° C. After washing, the plates were blocked by the Blocking Buffer (1% BSA in 1×PBS). […] After 1 hour incubation at room temperature, the plates were washed and added with the secondary antibody (HIRP-conjugated Goat anti-Human IgG Fc antibody; ThermoFisher A18829) for 1 hour at RT. The signals were developed by adding TMB substrate reagent (ThermoFisher 34021). The signals at 450 nm and 590 nm were read on the plate reader.
For orientation: EC50 (read off the curve) means the midpoint of the concentration-response curve. A low value points to an effect from little substance. On to B1, for which the “EC50 (read off the curve)” value is ~0.5 nM and ~0.3 nM.

For another experiment, the target named is human BDCA2 on human plasmacytoid dendritic cells (human) (UniProt Q8WTT0). Kind of experiment: flow cytometry on human PBMC with APCCy7-labelled control antibody, gate Lin- then CD4+CD123+ (pDC).
In turn, mIgG1-APCCy7 (antibody) showed a % of the gated Lin-CD123+ cells in Q2 (CD123+, APCCy7+) of 7.29%.

A further experiment addresses T3, recombinant rhesus BDCA2 extracellular domain (UniProt A0A1D5QFY5, residues 45-212) (rhesus, UniProt G7N5W2 45-211).
T3 construct: also called Monkey BDCA2
T3 sequence: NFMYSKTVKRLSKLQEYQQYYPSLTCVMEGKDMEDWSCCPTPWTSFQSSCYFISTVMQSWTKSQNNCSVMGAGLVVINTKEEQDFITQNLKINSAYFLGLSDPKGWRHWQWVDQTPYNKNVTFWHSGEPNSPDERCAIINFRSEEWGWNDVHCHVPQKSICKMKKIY
Kind of experiment: SPR (Biacore), antibody captured on Protein A chip, recombinant BDCA2 ECD flowed over. As to the method: (§2) BDCA2 antibody binding kinetics were measured using a Biacore surface plasmon resonance (SPR) instrument (GE Life Sciences). Briefly, anti-BDCA2 antibodies were captured on a Protein A sensor chip (GE Life Sciences). The recombinant BDCA2 proteins were then flowed over the captured antibodies over a range of concentrations, at a rate of 50 μL/minute. The data was analyzed to determine kinetic constants using the BIAevaluation software package (GE Life Sciences).
Take B1: the Kd stood at 9.2 nM, the koff is 0.00157 s⁻¹ and the kon came out at 170000 M⁻¹ s⁻¹.

In a further experiment the target is T1, recombinant human BDCA2 extracellular …. Described as above. As for the experimental part:
as §2
For the molecule B1, the koff is 0.000327 s⁻¹.

The target in another experiment is T4, human BDCA2 on human plasmacytoid dendritic cells (human, UniProt Q8WTT0 1-213).
T4 sequence (looked up): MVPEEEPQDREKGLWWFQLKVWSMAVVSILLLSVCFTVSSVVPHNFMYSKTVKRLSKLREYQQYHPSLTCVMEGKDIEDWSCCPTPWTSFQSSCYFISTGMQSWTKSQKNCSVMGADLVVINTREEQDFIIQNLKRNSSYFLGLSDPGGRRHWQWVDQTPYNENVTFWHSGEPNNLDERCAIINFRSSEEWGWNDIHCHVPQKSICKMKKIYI
Put plainly: cell-based or functional assay.
In the case of B1, the “IC50 of inhibition of IFNα production by CpG-stimulated human PBMC (multiple donors)” value is ~3 ng/mL.

The next experiment has as its target T1, recombinant human BDCA2 extracellular …. Put plainly: SPR / in vitro binding to BDCA2 proteins (FIG. 7, FIG. 8).
B1: the Kd is ~1 nM, the koff is ~0.00033 s⁻¹ and the kon is ~210000 M⁻¹ s⁻¹.

The target is the same in another experiment. Put plainly: SPR (Biacore), antibody captured on anti-human Fc chip, recombinant BDCA2 flowed over; small-scale batch. As to the method:
as §1
For B1, the Kd turned out to be 1.19 nM, the koff turned out to be 0.000156 s⁻¹ and the kon came out at 131000 M⁻¹ s⁻¹.

B3: the Kd amounted to 1.01 nM, the koff is 0.000145 s⁻¹ and the kon turned out to be 144000 M⁻¹ s⁻¹.

As to B4, the Kd is 1.49 nM, the koff turned out to be 0.000183 s⁻¹ and the kon came out at 123000 M⁻¹ s⁻¹.

On to B5, for which the Kd came to 2.63 nM, the dissociation rate constant (koff) amounted to 0.000286 s⁻¹ and the kon was determined as 109000 M⁻¹ s⁻¹.

On to B6, for which the Kd was found to be 3.47 nM, the koff is 0.000272 s⁻¹ and the kon is 78500 M⁻¹ s⁻¹.

Regarding B7, the Kd was 2.02 nM, the koff was 0.000197 s⁻¹ and the kon was 97400 M⁻¹ s⁻¹.

In the case of B8, the Kd turned out to be 1.89 nM, the koff stood at 0.000237 s⁻¹ and the kon was 125000 M⁻¹ s⁻¹.

On to B9, for which the Kd was 1.41 nM, the koff came to 0.000164 s⁻¹ and the kon is 116000 M⁻¹ s⁻¹.

As to B10, the Kd is 0.998 nM, the koff amounted to 0.000142 s⁻¹ and the kon worked out at 142000 M⁻¹ s⁻¹.

B11: the Kd was 1.49 nM, the koff amounted to 0.000159 s⁻¹ and the kon was determined as 107000 M⁻¹ s⁻¹.

Regarding B12, the Kd amounted to 1.31 nM, the koff is 0.000166 s⁻¹ and the kon came out at 126000 M⁻¹ s⁻¹.

As to B13, the Kd was 1.77 nM, the koff came out at 0.000195 s⁻¹ and the on-rate (kon) stood at 110000 M⁻¹ s⁻¹.

For B14, the Kd amounted to 1.2 nM, the koff turned out to be 0.000165 s⁻¹ and the kon worked out at 138000 M⁻¹ s⁻¹.

B15: the dissociation constant (Kd) worked out at 4.77 nM, the koff amounted to 0.000409 s⁻¹ and the kon is 85600 M⁻¹ s⁻¹.

As for B16, the Kd worked out at 3.44 nM, the koff is 0.000232 s⁻¹ and the kon is 67600 M⁻¹ s⁻¹.

On to B17, for which the Kd is 2.06 nM, the dissociation rate constant (koff) is 0.000193 s⁻¹ and the kon amounted to 93900 M⁻¹ s⁻¹.

For B18, the Kd amounted to 1.74 nM, the koff is 0.000187 s⁻¹ and the kon was found to be 107000 M⁻¹ s⁻¹.

Turning to B2, the Kd was 1.06 nM, the koff is 0.000138 s⁻¹ and the kon came to 130000 M⁻¹ s⁻¹.

Turning to B19, the Kd was found to be 1.25 nM, the koff came out at 0.000144 s⁻¹ and the kon stood at 115000 M⁻¹ s⁻¹.

For the origin of these results see patent US20240092914A1 (NEW PARADIGM BIOSCIENCES USA, published 2024).
